Patent US20180155451A1 (published 2018)

Tests used:
[1] = target: T1, FcγRIIb extracellular domain with C-terminal His tag (human, UniProt P31994 43-217); assay: SPR (Biacore), relative binding, GpH7-A5/GpH7-B3/GpL16-k0 = 100
T1 construct: extracellular domain; also called 2b; FcgRIIb; not shown: His tag at the C terminus
T1 sequence (looked up): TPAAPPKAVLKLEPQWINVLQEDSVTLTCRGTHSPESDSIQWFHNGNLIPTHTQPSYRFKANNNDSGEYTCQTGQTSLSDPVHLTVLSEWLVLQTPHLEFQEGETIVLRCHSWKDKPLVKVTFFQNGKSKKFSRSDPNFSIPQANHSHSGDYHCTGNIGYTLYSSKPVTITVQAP

[2] = target: T2, FcγRIIIa extracellular domain with C-terminal His tag (human, UniProt P08637 17-208); assay: as above
T2 construct: extracellular domain; also called 3a; FcgRIIIa; not shown: His tag at the C terminus
T2 sequence (P08637 17-208): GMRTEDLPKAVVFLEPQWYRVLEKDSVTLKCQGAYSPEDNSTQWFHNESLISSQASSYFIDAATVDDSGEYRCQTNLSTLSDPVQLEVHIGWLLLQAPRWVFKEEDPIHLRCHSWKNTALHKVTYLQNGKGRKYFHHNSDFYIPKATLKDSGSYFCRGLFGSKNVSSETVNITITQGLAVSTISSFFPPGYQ

Binder | He/Con_2b [1] | He/Con_3a [2]
GpH7-A5/GpH7-B3 variant S337_08L/GpL16-k0 (antibody, human IgG1, kappa, He Ab: mutation in the GpH7-B3 H chain only; also called He Ab) heavy 1: not shown heavy 2: not shown light: DIVMTQSPLSLPVTPGEPASISCQASESLVHSNRNTYLHWYLQKPGQSPQLLIYKVSNRFSGVPDRFSGSGSGTDFTLKISRVEAEDVGVYYCSQNTHVPPTFGQGTKVEIERTVAAPSVFIFPPSDEQLKSGTASVVCLLNNFYPREAKVQWKVDNALQSGNSQESVTEQDSKDSTYSLSSTLTLSKADYEKHKVYACEVTHQGLSSPVTKSFNRGEC | 100 % of control | 96.9 % of control
GpH7-A5/GpH7-B3 variant T335_04F/GpL16-k0 (antibody, human IgG1, kappa, He Ab: mutation in the GpH7-B3 H chain only; also called He Ab) heavy 1: not shown heavy 2: not shown light: DIVMTQSPLSLPVTPGEPASISCQASESLVHSNRNTYLHWYLQKPGQSPQLLIYKVSNRFSGVPDRFSGSGSGTDFTLKISRVEAEDVGVYYCSQNTHVPPTFGQGTKVEIERTVAAPSVFIFPPSDEQLKSGTASVVCLLNNFYPREAKVQWKVDNALQSGNSQESVTEQDSKDSTYSLSSTLTLSKADYEKHKVYACEVTHQGLSSPVTKSFNRGEC | 103 % of control | 96 % of control
GpH7-A5/GpH7-B3 variant V266_04F/GpL16-k0 (antibody, human IgG1, kappa, He Ab: mutation in the GpH7-B3 H chain only; also called He Ab) heavy 1: not shown heavy 2: not shown light: DIVMTQSPLSLPVTPGEPASISCQASESLVHSNRNTYLHWYLQKPGQSPQLLIYKVSNRFSGVPDRFSGSGSGTDFTLKISRVEAEDVGVYYCSQNTHVPPTFGQGTKVEIERTVAAPSVFIFPPSDEQLKSGTASVVCLLNNFYPREAKVQWKVDNALQSGNSQESVTEQDSKDSTYSLSSTLTLSKADYEKHKVYACEVTHQGLSSPVTKSFNRGEC | 57.6 % of control | 34.7 % of control
GpH7-A5/GpH7-B3 variant V266_06M/GpL16-k0 (antibody, human IgG1, kappa, He Ab: mutation in the GpH7-B3 H chain only; also called He Ab) heavy 1: not shown heavy 2: not shown light: DIVMTQSPLSLPVTPGEPASISCQASESLVHSNRNTYLHWYLQKPGQSPQLLIYKVSNRFSGVPDRFSGSGSGTDFTLKISRVEAEDVGVYYCSQNTHVPPTFGQGTKVEIERTVAAPSVFIFPPSDEQLKSGTASVVCLLNNFYPREAKVQWKVDNALQSGNSQESVTEQDSKDSTYSLSSTLTLSKADYEKHKVYACEVTHQGLSSPVTKSFNRGEC | 251 % of control | 85.8 % of control
GpH7-A5/GpH7-B3 variant V266_08L/GpL16-k0 (antibody, human IgG1, kappa, He Ab: mutation in the GpH7-B3 H chain only; also called He Ab) heavy 1: not shown heavy 2: not shown light: DIVMTQSPLSLPVTPGEPASISCQASESLVHSNRNTYLHWYLQKPGQSPQLLIYKVSNRFSGVPDRFSGSGSGTDFTLKISRVEAEDVGVYYCSQNTHVPPTFGQGTKVEIERTVAAPSVFIFPPSDEQLKSGTASVVCLLNNFYPREAKVQWKVDNALQSGNSQESVTEQDSKDSTYSLSSTLTLSKADYEKHKVYACEVTHQGLSSPVTKSFNRGEC | 236 % of control | 118 % of control
GpH7-A5/GpH7-B3 variant V266_10E/GpL16-k0 (antibody, human IgG1, kappa, He Ab: mutation in the GpH7-B3 H chain only; also called He Ab) heavy 1: not shown heavy 2: not shown light: DIVMTQSPLSLPVTPGEPASISCQASESLVHSNRNTYLHWYLQKPGQSPQLLIYKVSNRFSGVPDRFSGSGSGTDFTLKISRVEAEDVGVYYCSQNTHVPPTFGQGTKVEIERTVAAPSVFIFPPSDEQLKSGTASVVCLLNNFYPREAKVQWKVDNALQSGNSQESVTEQDSKDSTYSLSSTLTLSKADYEKHKVYACEVTHQGLSSPVTKSFNRGEC | 15.2 % of control | 4.1 % of control
GpH7-A5/GpH7-B3 variant T335_18N/GpL16-k0 (antibody, human IgG1, kappa, He Ab: mutation in the GpH7-B3 H chain only; also called He Ab) heavy 1: not shown heavy 2: not shown light: DIVMTQSPLSLPVTPGEPASISCQASESLVHSNRNTYLHWYLQKPGQSPQLLIYKVSNRFSGVPDRFSGSGSGTDFTLKISRVEAEDVGVYYCSQNTHVPPTFGQGTKVEIERTVAAPSVFIFPPSDEQLKSGTASVVCLLNNFYPREAKVQWKVDNALQSGNSQESVTEQDSKDSTYSLSSTLTLSKADYEKHKVYACEVTHQGLSSPVTKSFNRGEC | 102 % of control | 98.8 % of control
GpH7-A5/GpH7-B3 variant V266_05P/GpL16-k0 (antibody, human IgG1, kappa, He Ab: mutation in the GpH7-B3 H chain only; also called He Ab) heavy 1: not shown heavy 2: not shown light: DIVMTQSPLSLPVTPGEPASISCQASESLVHSNRNTYLHWYLQKPGQSPQLLIYKVSNRFSGVPDRFSGSGSGTDFTLKISRVEAEDVGVYYCSQNTHVPPTFGQGTKVEIERTVAAPSVFIFPPSDEQLKSGTASVVCLLNNFYPREAKVQWKVDNALQSGNSQESVTEQDSKDSTYSLSSTLTLSKADYEKHKVYACEVTHQGLSSPVTKSFNRGEC | 0.4 % of control | -0.7 % of control
GpH7-A5/GpH7-B3 variant V266_16H/GpL16-k0 (antibody, human IgG1, kappa, He Ab: mutation in the GpH7-B3 H chain only; also called He Ab) heavy 1: not shown heavy 2: not shown light: DIVMTQSPLSLPVTPGEPASISCQASESLVHSNRNTYLHWYLQKPGQSPQLLIYKVSNRFSGVPDRFSGSGSGTDFTLKISRVEAEDVGVYYCSQNTHVPPTFGQGTKVEIERTVAAPSVFIFPPSDEQLKSGTASVVCLLNNFYPREAKVQWKVDNALQSGNSQESVTEQDSKDSTYSLSSTLTLSKADYEKHKVYACEVTHQGLSSPVTKSFNRGEC | 57.2 % of control | 21.3 % of control
GpH7-A5/GpH7-B3 variant V266_02A/GpL16-k0 (antibody, human IgG1, kappa, He Ab: mutation in the GpH7-B3 H chain only; also called He Ab) heavy 1: not shown heavy 2: not shown light: DIVMTQSPLSLPVTPGEPASISCQASESLVHSNRNTYLHWYLQKPGQSPQLLIYKVSNRFSGVPDRFSGSGSGTDFTLKISRVEAEDVGVYYCSQNTHVPPTFGQGTKVEIERTVAAPSVFIFPPSDEQLKSGTASVVCLLNNFYPREAKVQWKVDNALQSGNSQESVTEQDSKDSTYSLSSTLTLSKADYEKHKVYACEVTHQGLSSPVTKSFNRGEC | 81 % of control | 57.4 % of control
GpH7-A5/GpH7-B3 variant V266_13S/GpL16-k0 (antibody, human IgG1, kappa, He Ab: mutation in the GpH7-B3 H chain only; also called He Ab) heavy 1: not shown heavy 2: not shown light: DIVMTQSPLSLPVTPGEPASISCQASESLVHSNRNTYLHWYLQKPGQSPQLLIYKVSNRFSGVPDRFSGSGSGTDFTLKISRVEAEDVGVYYCSQNTHVPPTFGQGTKVEIERTVAAPSVFIFPPSDEQLKSGTASVVCLLNNFYPREAKVQWKVDNALQSGNSQESVTEQDSKDSTYSLSSTLTLSKADYEKHKVYACEVTHQGLSSPVTKSFNRGEC | 54.4 % of control | 28.1 % of control
GpH7-A5/GpH7-B3 variant V266_18N/GpL16-k0 (antibody, human IgG1, kappa, He Ab: mutation in the GpH7-B3 H chain only; also called He Ab) heavy 1: not shown heavy 2: not shown light: DIVMTQSPLSLPVTPGEPASISCQASESLVHSNRNTYLHWYLQKPGQSPQLLIYKVSNRFSGVPDRFSGSGSGTDFTLKISRVEAEDVGVYYCSQNTHVPPTFGQGTKVEIERTVAAPSVFIFPPSDEQLKSGTASVVCLLNNFYPREAKVQWKVDNALQSGNSQESVTEQDSKDSTYSLSSTLTLSKADYEKHKVYACEVTHQGLSSPVTKSFNRGEC | 69.7 % of control | 30.4 % of control
GpH7-A5/GpH7-B3 variant V266_07I/GpL16-k0 (antibody, human IgG1, kappa, He Ab: mutation in the GpH7-B3 H chain only; also called He Ab) heavy 1: not shown heavy 2: not shown light: DIVMTQSPLSLPVTPGEPASISCQASESLVHSNRNTYLHWYLQKPGQSPQLLIYKVSNRFSGVPDRFSGSGSGTDFTLKISRVEAEDVGVYYCSQNTHVPPTFGQGTKVEIERTVAAPSVFIFPPSDEQLKSGTASVVCLLNNFYPREAKVQWKVDNALQSGNSQESVTEQDSKDSTYSLSSTLTLSKADYEKHKVYACEVTHQGLSSPVTKSFNRGEC | 152 % of control | 114 % of control
GpH7-A5/GpH7-B3 variant V266_09D/GpL16-k0 (antibody, human IgG1, kappa, He Ab: mutation in the GpH7-B3 H chain only; also called He Ab) heavy 1: not shown heavy 2: not shown light: DIVMTQSPLSLPVTPGEPASISCQASESLVHSNRNTYLHWYLQKPGQSPQLLIYKVSNRFSGVPDRFSGSGSGTDFTLKISRVEAEDVGVYYCSQNTHVPPTFGQGTKVEIERTVAAPSVFIFPPSDEQLKSGTASVVCLLNNFYPREAKVQWKVDNALQSGNSQESVTEQDSKDSTYSLSSTLTLSKADYEKHKVYACEVTHQGLSSPVTKSFNRGEC | 10.1 % of control | 2.7 % of control
GpH7-A5/GpH7-B3 variant V266_19Q/GpL16-k0 (antibody, human IgG1, kappa, He Ab: mutation in the GpH7-B3 H chain only; also called He Ab) heavy 1: not shown heavy 2: not shown light: DIVMTQSPLSLPVTPGEPASISCQASESLVHSNRNTYLHWYLQKPGQSPQLLIYKVSNRFSGVPDRFSGSGSGTDFTLKISRVEAEDVGVYYCSQNTHVPPTFGQGTKVEIERTVAAPSVFIFPPSDEQLKSGTASVVCLLNNFYPREAKVQWKVDNALQSGNSQESVTEQDSKDSTYSLSSTLTLSKADYEKHKVYACEVTHQGLSSPVTKSFNRGEC | 89.2 % of control | 34.7 % of control
GpH7-A5/GpH7-B3 variant V266_11K/GpL16-k0 (antibody, human IgG1, kappa, He Ab: mutation in the GpH7-B3 H chain only; also called He Ab) heavy 1: not shown heavy 2: not shown light: DIVMTQSPLSLPVTPGEPASISCQASESLVHSNRNTYLHWYLQKPGQSPQLLIYKVSNRFSGVPDRFSGSGSGTDFTLKISRVEAEDVGVYYCSQNTHVPPTFGQGTKVEIERTVAAPSVFIFPPSDEQLKSGTASVVCLLNNFYPREAKVQWKVDNALQSGNSQESVTEQDSKDSTYSLSSTLTLSKADYEKHKVYACEVTHQGLSSPVTKSFNRGEC | 1 % of control | -0.7 % of control
GpH7-A5/GpH7-B3 variant V266_15Y/GpL16-k0 (antibody, human IgG1, kappa, He Ab: mutation in the GpH7-B3 H chain only; also called He Ab) heavy 1: not shown heavy 2: not shown light: DIVMTQSPLSLPVTPGEPASISCQASESLVHSNRNTYLHWYLQKPGQSPQLLIYKVSNRFSGVPDRFSGSGSGTDFTLKISRVEAEDVGVYYCSQNTHVPPTFGQGTKVEIERTVAAPSVFIFPPSDEQLKSGTASVVCLLNNFYPREAKVQWKVDNALQSGNSQESVTEQDSKDSTYSLSSTLTLSKADYEKHKVYACEVTHQGLSSPVTKSFNRGEC | 49.4 % of control | 14.5 % of control
GpH7-A5/GpH7-B3 variant V266_14T/GpL16-k0 (antibody, human IgG1, kappa, He Ab: mutation in the GpH7-B3 H chain only; also called He Ab) heavy 1: not shown heavy 2: not shown light: DIVMTQSPLSLPVTPGEPASISCQASESLVHSNRNTYLHWYLQKPGQSPQLLIYKVSNRFSGVPDRFSGSGSGTDFTLKISRVEAEDVGVYYCSQNTHVPPTFGQGTKVEIERTVAAPSVFIFPPSDEQLKSGTASVVCLLNNFYPREAKVQWKVDNALQSGNSQESVTEQDSKDSTYSLSSTLTLSKADYEKHKVYACEVTHQGLSSPVTKSFNRGEC | 82.3 % of control | 39.4 % of control
